Drawing on PMC9496334, “In Silico Maturation of a Nanomolar Antibody against the Human CXCR2” (Biomolecules, 2022), this text covers Kd, koff and kon for nine molecules.

For assay [1], the target named is T1, Biotin-labeled human CXCR2 N-terminal extracellular peptide (pepN48) (Homo sapiens, UniProt P25025, biotin label (position not given)).
T1 construct: CXC chemokine receptor 2 (CXCR2, interleukin 8 receptor beta), human, the first 48 residues of the protein; Held on the streptavidin chip by its biotin; also called N-terminal peptide; peptide of extracellular N-terminal domain of human CXCR2
T1 chain: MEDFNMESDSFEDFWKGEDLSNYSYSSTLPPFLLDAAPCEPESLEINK
Description: SPR; biotin-labeled pepN48 immobilised on a streptavidin Series S Sensor Chip SA; Biacore T200; IgG1 antibodies injected as analytes in HBS-EP+ buffer pH 7.4; kinetics fitted globally. Particulars: both partners purified. On the technique in general: Surface plasmon resonance follows binding to a sensor surface in real time, without labels.

In assay [2] the target is T1, Biotin-labeled human CXCR2 N-terminal …. The description is as above. Particulars: both partners purified.

Usually Kd stands for the concentration at which binding is half-saturated. The low end stands for tighter binding, the high end for weaker binding. The term koff denotes the rate constant with which the complex falls apart. Broadly, the kon is the second-order rate constant of association. A lower kon goes with slow association.

B1: abN48 (antibody, V domains shown)
VH: QVQLVQSGAEVKKPGSSVKVSCKASGGTLSSYAISWVRQAPGQGPEWMGWINPNSGGTNYAQKFQGRVTMTRDTSISTAYMELSRLRPDDTAVYYCASGYCSSTSCYDYWGQGTLVTVSS
VL: QAVLTQPSSLSASPGASVSLTCTLRSGINVGAYRIYWYQQKPGSPPQFLLRYKSDSDKQQGSGVPSRFSGSRDASANAGILLISGLRSEDEADYYCAIWHSSAWVFGGGTQLTVL
notes: VH of abN48; constant region of the human IgG1 heavy chain, from the pFuse heavy-chain vector; VL of abN48, the same for all studied antibodies; light-chain constant region of the pFuse light-chain vector pfuse2ss-hcll2; Full-length IgG1 in the experiments; the crystal structure 6KVF holds the Fab; also called abN48 antibody; source: 293F cells, co-transfected, purified from the medium (HiTrap …)
Take B1: in assay [1], the dissociation constant (Kd) was determined as 1.3 nM.

B2: abN48-8 (antibody, V domains shown)
VH: QVQLVQSGAEVKKPGSSVKVSCKASGGTLSSYAISWVRQAPGQGPEWMGWINPNSGGTNYAQKFQGRVTMTRDTSISTAYMELSRLRPDDTAVYYCASGYCNRTRCYDHWGQGTLVTVSS
VL: QAVLTQPSSLSASPGASVSLTCTLRSGINVGAYRIYWYQQKPGSPPQFLLRYKSDSDKQQGSGVPSRFSGSRDASANAGILLISGLRSEDEADYYCAIWHSSAWVFGGGTQLTVL
notes: parent VH in PDB 6KVF; constant region of the human IgG1 heavy chain, from the pFuse heavy-chain vector; as the VL of the light chain of m1; light-chain constant region of the pFuse light-chain vector pfuse2ss-hcll2; Full-length IgG1; source: 293F cells, co-transfected, purified from the medium (HiTrap Protein A)
In assay [1], B2 came in with a Kd of 0.83 nM.

B3: abN48-2 (antibody, V domains shown)
VH: QVQLVQSGAEVKKPGSSVKVSCKASGGTLSSYAISWVRQAPGQGPEWMGWINPNSGGTNYAQKFQGRVTMTRDTSISTAYMELSRLRPDDTAVYYCASGYCSRTRCYDYWGQGTLVTVSS
VL: QAVLTQPSSLSASPGASVSLTCTLRSGINVGAYRIYWYQQKPGSPPQFLLRYKSDSDKQQGSGVPSRFSGSRDASANAGILLISGLRSEDEADYYCAIWHSSAWVFGGGTQLTVL
notes: VH of abN48-2: as the VH of m1 with two serines of CDR3 changed to arginines; parent VH in PDB 6KVF; constant region of the human IgG1 heavy chain, from the pFuse heavy-chain vector; as the VL of the light chain of m1; light-chain constant region of the pFuse light-chain vector pfuse2ss-hcll2; Full-length IgG1; source: 293F cells, co-transfected, purified from the medium (HiTrap Protein A)
As to B3, in assay [2], the Kd came to 0.11 nM, the koff amounted to 0.00027 s⁻¹ and the kon was 2.5e+06 M⁻¹ s⁻¹.

B4: abN48-38 (antibody, V domains shown)
VH: QVQLVQSGAEVKKPGSSVKVSCKASGGTLSSYAISWVRQAPGQGPEWMGWINPNSGGTNYAQKFQGRVTMTRDTSISTAYMELSRLRPDDTAVYYCASGYCSRSRCYDYWGQGTLVTVSS
VL: QAVLTQPSSLSASPGASVSLTCTLRSGINVGAYRIYWYQQKPGSPPQFLLRYKSDSDKQQGSGVPSRFSGSRDASANAGILLISGLRSEDEADYYCAIWHSSAWVFGGGTQLTVL
notes: as for B2
Regarding B4, the Kd in assay [1] was 0.23 nM.

B5: abN48-29 (antibody, V domains shown)
VH: QVQLVQSGAEVKKPGSSVKVSCKASGGTLSSYAISWVRQAPGQGPEWMGWINPNSGGTNYAQKFQGRVTMTRDTSISTAYMELSRLRPDDTAVYYCASGYCGRARCTSFWGQGTLVTVSS
VL: QAVLTQPSSLSASPGASVSLTCTLRSGINVGAYRIYWYQQKPGSPPQFLLRYKSDSDKQQGSGVPSRFSGSRDASANAGILLISGLRSEDEADYYCAIWHSSAWVFGGGTQLTVL
notes: as for B2
In assay [1], B5 yielded a Kd of 0.13 nM.

B6: abN48-28 (antibody, V domains shown)
VH: QVQLVQSGAEVKKPGSSVKVSCKASGGTLSSYAISWVRQAPGQGPEWMGWINPNSGGTNYAQKFQGRVTMTRDTSISTAYMELSRLRPDDTAVYYCASGYCSPSGCYVYWGQGTLVTVSS
VL: QAVLTQPSSLSASPGASVSLTCTLRSGINVGAYRIYWYQQKPGSPPQFLLRYKSDSDKQQGSGVPSRFSGSRDASANAGILLISGLRSEDEADYYCAIWHSSAWVFGGGTQLTVL
notes: as for B2
On to B6, for which, in assay [1], the Kd amounted to 0.65 nM.

B7: abN48-10 (antibody, V domains shown)
VH: QVQLVQSGAEVKKPGSSVKVSCKASGGTLSSYAISWVRQAPGQGPEWMGWINPNSGGTNYAQKFQGRVTMTRDTSISTAYMELSRLRPDDTAVYYCASGYCSRFNCKDYWGQGTLVTVSS
VL: QAVLTQPSSLSASPGASVSLTCTLRSGINVGAYRIYWYQQKPGSPPQFLLRYKSDSDKQQGSGVPSRFSGSRDASANAGILLISGLRSEDEADYYCAIWHSSAWVFGGGTQLTVL
notes: as for B2
Take B7: the affinity in assay [1], expressed as Kd, was 0.27 nM.

B8: abN48-1 (antibody, V domains shown)
VH: QVQLVQSGAEVKKPGSSVKVSCKASGGTLSSYAISWVRQAPGQGPEWMGWINPNSGGTNYAQKFQGRVTMTRDTSISTAYMELSRLRPDDTAVYYCASGFCTRTICFVYWGQGTLVTVSS
VL: QAVLTQPSSLSASPGASVSLTCTLRSGINVGAYRIYWYQQKPGSPPQFLLRYKSDSDKQQGSGVPSRFSGSRDASANAGILLISGLRSEDEADYYCAIWHSSAWVFGGGTQLTVL
notes: as for B2
The molecule B8 registered a Kd in assay [1] of 0.26 nM.

B9: abN48-3 (antibody, V domains shown)
VH: QVQLVQSGAEVKKPGSSVKVSCKASGGTLSSYAISWVRQAPGQGPEWMGWINPNSGGTNYAQKFQGRVTMTRDTSISTAYMELSRLRPDDTAVYYCASGYCSFAICFDSWGQGTLVTVSS
VL: QAVLTQPSSLSASPGASVSLTCTLRSGINVGAYRIYWYQQKPGSPPQFLLRYKSDSDKQQGSGVPSRFSGSRDASANAGILLISGLRSEDEADYYCAIWHSSAWVFGGGTQLTVL
notes: as for B2
Consider B9, for which the Kd in assay [1] came out at 2 nM.
